One may read the Kd as a measure of binding affinity in units of concentration. Low readings indicate a tighter complex, high ones a looser complex.

Experimental findings from patent US20160186149A1 are described below.

Experiment [1] has as its target mannose-6-phosphate (M6P) receptor. Description: M6P receptor affinity column (Affi-Gel 15), 6 ug GALNS loaded, eluted with mannose-6-phosphate gradient, quantified by GALNS ELISA.
Experiment [2] shares this target. Description: M6P receptor plate binding assay: receptor coated at 4 ug/mL, GALNS 0.16-10 nM, bound GALNS read by enzyme activity, single-site binding fit.
For experiment [3] the target is unchanged. Description: M6P receptor plate binding assay.

B1: recombinant human N-acetylgalactosamine-6-sulfatase (GALNS), purified, produced from G71S clone 4 co-expressing human SUMF1 (enzyme)
chain: APQPPNILLLLMDDMGWGDLGVYGEPSRETPNLDRMAAEGLLFPNFYSANPLCSPSRAALLTGRLPIRNGFYTTNAHARNAYTPQEIVGGIPDSEQLLPELLKKAGYVSKIVGKWHLGHRPQFHPLKHGFDEWFGSPNCHFGPYDNKARPNIPVYRDWEMVGRYYEEFPINLKTGEANLTQIYLQEALDFIKRQARHHPFFLYWAVDATHAPVYASKPFLGTSQRGRYGDAVREIDDSIGKILELLQDLHVADNTFVFFTSDNGAALISAPEQGGSNGPFLCGKQTTFEGGMREPALAWWPGHVTAGQVSHQLGSIMDLFTTSLALAGLTPPSDRAIDGLNLLPTLLQGRLMDRPIFYYRGDTLMAATLGQHKAHFWTWTNSWENFRQGIDFCPGQNVSGVTTHNLEDHTKLPLIFHLGRDPGERFPLSFASAEYQEALSRITSVVQQHQEALVPAQPQLNVCNWAVMNWAPPGCEKLGKCLTPPESIPKKCLWSH
modifications: Cys at position 53 of the precursor (position 79 of SEQ ID NO:4) converted to Calpha-formylglycine (FGly), about 90%; N-linked glycosylation at Asn178 (bis-phosphorylated mannose 7, BPM7) and Asn397 (oligomannose-type), precursor numbering; 0.58 mol M6P (BPM7)/mol GALNS
B1: the M6P Receptor Column Binding: % Bound in experiment [1] stood at 56%. For the same molecule, the Kd in experiment [2] amounted to 2.4 nM.

B2: recombinant human N-acetylgalactosamine-6-sulfatase (GALNS), purified, produced from G71S clone C2 co-expressing human SUMF1 (enzyme)
chain: B1 chain
modifications: Cys at position 53 of the precursor (position 79 of SEQ ID NO:4) converted to Calpha-formylglycine (FGly); N-linked glycosylation at Asn178 (BPM7) and Asn397; 0.69 mol M6P/mol GALNS
Consider B2, for which the Kd in experiment [3] was found to be 5.7 nM.
